Experiment: soluble on expression in E. coli; label from the status in PepcDB or PDB records

Sequence | soluble on expression in E. coli
MVLFSEDHIQETRRRGRIEVICGSMFSGKTEELIRRMKRAKFARQRVEIFKPAIDTRYSEEDVVSHDSHSIASTPIDSSASILLFTSEIDVVGIDEAQFFDDGLIDVCRQLANNGIRVIIAGLDMDFKGNPFGPMPQLCAIADEVSKVHAICVKCGDLASFSHRTVKNDKQVLLGETAEYEPLCRECYLRARGEDGQKILEHHHHHH | soluble
MVLFVDFLLEWLEMMRTRVRETTYASYNSGIRQSIIPYFMDKKLTLTDIEENPKYLQDFYQHELSKGLSPNSVLRRHANIRKALQHAFHLGLIKSNPADRIERPKKQLEHHHHHH | not soluble
MVLLKEYRVILPVSVDEYQVGQLYSVAEASKNETGGGEGVEVLVNEPYEKDDGEKGQYTHKIYHLQSKVPTFVRMLAPEGALNIHEKAWNAYPYCRTVITNEYMKEDFLIKIETWHKPDLGTQENVHKLEPEAWKHVEAIYIDIADRSQVLSKDYKAEEDPAKFKSIKTGRGPLGPNWKQELVNQKDCPYMCAYKLVTVKFKWWGLQNKVENFIHKQEKRLFTNFHRQLFCWLDKWVDLTMDDIRRMEEETKRQLDEMRQKDPVKGMTADD | soluble
MVLLLIVNKYWKVNDMKNEIQKNMDKYNPWHEDDFESYEDIARDVSLTTDKTFIEHYLLEVYSEENGHFDQENVHAMIEEIKNAI | not soluble
MVLNSMRLFYILSQRDASSKNFNSSIYSRRSSRNSGCPGALFRSGRAVPFERVVGQQYFLKAYAILHSLNICRVEAGYIFDRKKTKFQDFLRFGRAGMASGVGGGSEGGPDDVKNSYIRVNGEPEIVYQ | not soluble
MVNPQAGVVVGYWHNWCGGAGYKGGVAPCVSLAQVNPQYNVVDISFMKVYGATGSIPTFKLDPAVGLSEAQFIDQIGELNRQGRAVLIALGGADAHIELRKGQEHDLANEIIRLVEKYGFDGLDIDLEQAAVTAADNQIVIPAALRIVKDHYRKQQKNFLITMAPEFPYLTTGGKYVPYINALEGYYDWINPQFYNQGGDGIYIEGIGWIAQNNDSLKQEFIYHISDALVNGTNGFTKIPHDKLVFGIPTNIDAAATGYVSDPNALFAAFEQLKNQGQPLRGLMTWSVNWDMGKNAAGQAYNESFIKAYGPFIHGQDITPPEPENGKPIFSGLSNTRVKLGGTFNAMDGVSAYDEEDKDLTQQIQVTGDVNTNQIGLYPLTYKVTDSDNNTTEQVRTVEVYNTKPELSGVSNTTIILATPFDAMAGVSATDAEDGNLTPNIRVEGEVDSNRVGQYQLTYSVSDSAGEQTRAVRLVTVQEQGAVCENLWSASKIYLGGDTVNYAGKIWLAGWWTQGEQPDLAGEWGVWKSKGDSDCDSGLPPVITPNFTVSGLASSYILNQGQVSINFNVNTNQAMELTANLTQEQRILASTTATINGNGAMVLQAESLEAGAYQVVISAKDKNLTQSYNVSLVQGDDGSEPVEYPAYVAGNQYQAGNIVTNAGGVYQCRPWPNSGWCSGSAPYYAPGTGSAWQDAWTKHLEHHHHHH | soluble
MVNRCFFFNRRICFMELFLLRHGKPDIRRSMAIRSVDMYSWIGEYDAAGILDSPDASTVAASEGKFIVSSPMPRALESVAALGLEPDIIIDELHEAPLPVFNIPLLKLTPLVWAALFRIFWMAGGSGGVETFSSVKIRAKLVSCELDKMAETHGSVLSVGHGFMNALVARELQKAGWKRQKVGPSGYWSGIKLVRLEHHHHHH | soluble
MVPAAENLSPIPASIDTNDIPLIANDLKLLETQAKLINILQGVPFYLPVNLTKIESLLETLTMGVSNTVDLYFHDNEVRKEWKDTLNFINTIVYTNFFLFVQNESSLSMAVQHSSNNNKTSNSERCAKDLMKIISNMHIFYSITFNFIFPIKSIKSFSSGNNRFHSNGKEFLFANHFIEILQNFIAITFAIFQRCEVILYDEFYKNLSNEEINVQLLLIHDKILEILKKIEIIVSFLRDEMNSNGSFKSIKGFNKVLNLIKYMLRFSKKKQNFARNSDNNNVTDYSQSAKNKNVLLKFPVSELNRIYLKFKEISDFLMEREVVQRSIIIDKDLESDNLGITTANFNDFYDAFYN | soluble
MVRHRLPSSTYYTPAGEPEWSREMFGEQSIAVLSGAYRNPIEMARHVAARCGSYQPFFVMDVAAIERRLEALRVMLPRVRPNYAVACNADPVLARVLSNNIDVNFEVSNTAELELVSMNVEPSRAVFCSQLMTRKAIKNAVLAGCSTFVVESEKQVTDVMNASPEAEIILAVCLPYSTGEVPFGCSVDEIEEILDMAHLLGANVTGIYLELGLRATLEDYITSVHDARSIFETADQKFLTLRRVCFGNLSVPTGADGAVNNEFMSFCNSLNNVIDDLFESNIDFSASIGRFLVTNAFTLCTNVIGKRAMDAKFITNDDFDDGVGFVYQTNDGVYGSFGCKQMDIKPLCKPLDVENDSEEQLHFGTILGPTLDGTDVAQRLMKSRQLRVGEWLVWEQMGAFTIPVDSEHSVPPVYYYSGKECWQKLIHKDEQRRSPSPSVSDNEDIGSDGEGGYASSCEDSEAEMALEPLIEDLNEFF | not soluble
MVRIDLGIKGKKVIVTAASKGIGFATAKRFLEEGAKVIISSHDENNLRKAYERLKNLGEVNYIIADLTKPSDVENLIKSGYSTLGGLDVLVYVTGSPKPGNLFELTNEDWINAFYLLLMSAVIAVREAGKLMKSGGRIILSTSMTLKEPLPNLDLSNVVRLSLAGLIKVAARELGEKGILVNGVMPGWTLTDRVDQLVKDRAKREGRSEEEIIRDITRDVPLKRIGKPEEVANVILFLASELSTYVNGVLIPVDGGLIKATL | soluble
MVRIRRAGLEDLPGVARVLVDTWRATYRGVVPEAFLEGLSYEGQAERWAQRLKTPTWPGRLFVAESESGEVVGFAAFGPDRASGFPGYTAELWAIYVLPTWQRKGLGRALFHEGARLLQAEGYGRMLVWVLKENPKGRGFYEHLGGVLLGEREIELGGAKLWEVAYGFDLGGHKW | soluble
MVRKLKTHEQKLLKKTDFMSWQVDQQGKQGDMLRKFYVKKREHYALYNTLAAKSREVADLIKNLSESDPFRSKCTEDMLTKFYAAGLVPTSDTLERIGKVTGASFARRRLPVVMRNIGMCESVKTASDLVEQGHVRIGTKLVTDPAFMVTRSSEDMITWTKASKIKKHVMDYNNTRDDFDLMD | not soluble
MVRRRTASPSPSAPVRSAPRPAAQSSFAAPPPRPAAAAPAYHPPAAPTPMGAPMGAPSQGPGLMKQMAATAGGVAIGSAVGHAVGGMFTGGGSSHAEQAPAAAAAPAGAPQASGYSQPCEFEWRQFVDCAQNQSDVSLCNGFNDIFKQCKARYA | not soluble
MVSITSDAIRNALHKVKGPNFESDIVSLGLLSEILVVHGKVFFSITVPDGRVQEWESLRRSVEEVVSALDGVEAVFVTLTTERRPEMSSQLQRDEVFFAPKRRANRLLEKMPIEGVRHVVAVASGKGGVGKSTMAINIALALQDSGFKTGLMDADIYGPSLPRLTGLVNQKPQYIDGKKLHPLEKFGLKLMSMGFLVEEENPVVWRGPMVMAAVTQLLRDVLWGPLDVLVVDMPPGTGDAQLTLAQQVQLTGALIVSTPQDLALVDARKAMEMFMKVNVPILGLIENMSYFIAPDTGKRYDIFGYGGTRAEARRRGVPFLAEVPLDAALRSSSDDGIPIFVAKPDEEHTKLYRSIVGQIKNKFF | not soluble
MVSLDKAVIARLRKGGEEFEVLVDPYLARDLKEGKEVNFEDLLAAEEVFKDAKKGERASVDELRKIFGTDDVFEIARKIILEGEVQITAEQRREMLEAKRKQIINFISRNTIDPRTNAPHPPSRIERALEEAKVHIDIFKSVEAQVKDIVKALKPILPLKFEEMEIAIKIPPEHTGRAISALYNFGGVTREEWQRDGSWICVMRIPSGMYGDLMDLLGKVAKGEALTKVLRRIG | not soluble
MVSNAYQGIGSEYETLLKASGRENEVFKKRVGKDRVMATTVHGWWQETMWQRSSSLFTDGRICSCWRLSPTSSRGLQPTYQRKRDFTTGRYGKNACG | not soluble
MVSTHSSQYITDFTPVPAEPGKSPLALLAKTCETIGLPEGSSKKNGASSSSSPQGKKDEKNHILHHQHHQQQQQSKQKSSPRSTPQSKEPTLTFPGLPKPSFPMGMPGMMQGFPFFNPMMTAYGCFPGAFPMSQGFMGAQRLPCPFAMMRQPCANPACVQCPSSSSNAAKNGQMTAEMMSQFAAHPLFSMYAGMMPGVPTSSYQALLAASAAASTSAGPTDYSNVASTSKASPQPKPTAQKSQKSAKFPCNWVDSDVPCGKVFDEENELASHVKKMHAPSPSSSASSEQSTSTGKASRSSTTTPHRFNPYGKPVAPAPPTMQQMGMNMAMNPLVLPFSLQAMYSNRLMSTVAHQ | not soluble

From the DeepSol protein solubility set
